What was measured:
Assay in all cases: ProtoArray, GST-treated control array
Details in all cases: remark: other sources report otherwise
[1] = biological target: C12orf23-chromosome 12 open reading frame 23 (C12orf23) (human), Q8WUH6
[2] = biological target: UBE2D2-Ubiquitin-conjugating enzyme E2 D2 (human), P62837
[3] = biological target: YPEL5-yippee-like 5 (Drosophila) (YPEL5) (human), P62699
YPEL5-yippee-like 5 (Drosophila) (YPEL5) (human), P62699, sequence (P62699 whole entry): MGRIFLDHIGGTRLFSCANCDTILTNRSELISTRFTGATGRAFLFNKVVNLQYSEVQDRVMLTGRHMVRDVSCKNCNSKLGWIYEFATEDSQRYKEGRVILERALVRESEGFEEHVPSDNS

UBE2D2-Ubiquitin-conjugating enzyme E2 D2 (human), P62837, sequence (P62837 whole entry): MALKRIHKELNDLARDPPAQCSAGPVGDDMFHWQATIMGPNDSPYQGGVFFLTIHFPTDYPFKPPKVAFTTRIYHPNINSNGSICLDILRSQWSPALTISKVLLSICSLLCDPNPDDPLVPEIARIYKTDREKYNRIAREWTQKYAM

B1: 3× Flag-3×MBT (designed binder, not shown: a dimerising Fc or GST)
chain: EEWSSSQPATGEKKECWSWESYLEEQKAITAPVSLFQDSQAVTHNKNGFKLGMKLEGIDPQHPSMYFILTVAEVCGYRLRLHFDGYSECHDFWVNANSPDIHPAGWFEKTGHKLQPPKGYKEEEFSWSQYLRSTRAQAAPKHLFVSQSHSPPPLGFQVGMKLEAVDRMNPSLVCVASVTDVVDSRFLVHFDNWDDTYDYWCDPSSPYIHPVGWCQKQGKPLTPPQDYPDPDNFCWEKYLEETGASAVPTWAFKVRPPHSFLVNMKLEAVDRRNPALIRVASVEDVEDHRIKIHFDGWSHGYDFWIDADHPDIHPAGWCSKTGHPLQPPLGPREPSSASPGG
GST Average SNR [1]: 0.48
GST Average SNR [2]: -0.383
GST Average SNR [3]: -0.787
